Target: human αvβ1 integrin on cells (human) (UniProt P06756)
Assay: inhibition of adhesion of BCECF-labelled αvβ1-transfected cells to plate-coated LAP

human αvβ1 integrin on cells (human), sequence (P06756 31-1048 limits assumed, chain 1 of 2): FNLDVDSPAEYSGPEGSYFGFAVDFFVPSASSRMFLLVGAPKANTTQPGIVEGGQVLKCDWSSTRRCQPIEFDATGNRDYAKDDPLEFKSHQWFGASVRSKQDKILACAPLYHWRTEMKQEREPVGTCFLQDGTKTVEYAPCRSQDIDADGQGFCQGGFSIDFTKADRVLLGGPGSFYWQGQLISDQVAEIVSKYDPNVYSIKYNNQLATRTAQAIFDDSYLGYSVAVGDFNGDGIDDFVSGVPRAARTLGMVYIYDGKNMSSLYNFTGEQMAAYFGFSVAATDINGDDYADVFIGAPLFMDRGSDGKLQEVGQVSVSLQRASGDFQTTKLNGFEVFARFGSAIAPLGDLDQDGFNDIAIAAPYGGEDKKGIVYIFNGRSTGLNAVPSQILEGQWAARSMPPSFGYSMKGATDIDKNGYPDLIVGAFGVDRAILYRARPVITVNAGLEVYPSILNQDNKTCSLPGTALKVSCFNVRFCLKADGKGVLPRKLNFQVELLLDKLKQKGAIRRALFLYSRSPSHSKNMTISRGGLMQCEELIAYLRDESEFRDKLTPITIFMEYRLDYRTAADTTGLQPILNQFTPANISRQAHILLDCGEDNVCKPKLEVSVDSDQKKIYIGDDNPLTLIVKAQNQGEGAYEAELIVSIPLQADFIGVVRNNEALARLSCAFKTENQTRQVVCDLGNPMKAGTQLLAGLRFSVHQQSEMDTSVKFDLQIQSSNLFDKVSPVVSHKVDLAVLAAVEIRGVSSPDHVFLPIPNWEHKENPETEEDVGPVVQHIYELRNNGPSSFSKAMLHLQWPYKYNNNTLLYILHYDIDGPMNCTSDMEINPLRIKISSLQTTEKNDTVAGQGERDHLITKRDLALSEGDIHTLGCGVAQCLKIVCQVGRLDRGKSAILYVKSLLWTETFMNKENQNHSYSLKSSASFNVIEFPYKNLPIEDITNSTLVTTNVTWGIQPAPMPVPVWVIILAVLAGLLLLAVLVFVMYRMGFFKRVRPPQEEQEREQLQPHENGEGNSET
human αvβ1 integrin on cells (human), sequence (chain, as listed by the source limits assumed, chain 2 of 2): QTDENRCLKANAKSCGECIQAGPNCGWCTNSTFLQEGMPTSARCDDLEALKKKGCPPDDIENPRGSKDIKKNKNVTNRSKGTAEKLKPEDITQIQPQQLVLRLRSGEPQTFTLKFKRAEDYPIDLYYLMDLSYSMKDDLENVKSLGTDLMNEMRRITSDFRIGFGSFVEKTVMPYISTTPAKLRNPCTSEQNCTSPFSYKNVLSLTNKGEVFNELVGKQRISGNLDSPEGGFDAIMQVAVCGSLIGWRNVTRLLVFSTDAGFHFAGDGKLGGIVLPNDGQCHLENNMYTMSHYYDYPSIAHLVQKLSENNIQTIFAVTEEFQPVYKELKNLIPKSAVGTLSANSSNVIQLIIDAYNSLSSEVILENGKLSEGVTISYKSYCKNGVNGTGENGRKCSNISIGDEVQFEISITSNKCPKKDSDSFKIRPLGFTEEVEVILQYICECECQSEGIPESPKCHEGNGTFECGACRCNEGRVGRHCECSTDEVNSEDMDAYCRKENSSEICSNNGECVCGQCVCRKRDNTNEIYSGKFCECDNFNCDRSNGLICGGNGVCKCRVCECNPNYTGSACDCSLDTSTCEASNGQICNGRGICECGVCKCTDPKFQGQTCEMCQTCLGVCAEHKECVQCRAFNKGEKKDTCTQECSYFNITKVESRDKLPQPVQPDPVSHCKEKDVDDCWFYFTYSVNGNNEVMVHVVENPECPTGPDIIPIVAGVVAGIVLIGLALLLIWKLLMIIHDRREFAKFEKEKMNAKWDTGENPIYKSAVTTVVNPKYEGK

L230 (pan-αv commercial antibody)
IC50: 1 nM

Reference: patent US20220195052A1
